Our source for the interaction score values is article PMC10397247.

Test in all cases: two-hybrid library CCNG1;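 further: natural log of median RNA to DNA barcode read ratio; higher means stronger binding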
One assay deals with T1, P12A-bP.
T1 chain: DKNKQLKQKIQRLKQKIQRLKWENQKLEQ

In a further assay the target is T2, P1A-bP.
T2 chain: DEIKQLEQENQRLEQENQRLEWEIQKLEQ

Another assay addresses T3, P2A-bP.
T3 chain: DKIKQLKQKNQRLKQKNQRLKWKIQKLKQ

In a further assay the target is T4, P3A-bP.
T4 chain: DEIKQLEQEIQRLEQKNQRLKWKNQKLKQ

The next assay deals with T5, P4A-bP.
T5 chain: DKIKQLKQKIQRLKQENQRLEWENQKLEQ

Another assay has as its target T6, P5A-bP.
T6 chain: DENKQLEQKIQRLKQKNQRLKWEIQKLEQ

For another assay, the target named is T7, P6A-bP.
T7 chain: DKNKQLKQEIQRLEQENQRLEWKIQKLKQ

Another assay addresses T8, P7A-bP.
T8 chain: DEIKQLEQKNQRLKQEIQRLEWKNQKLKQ

In a further assay the target is T9, P8A-bP.
T9 chain: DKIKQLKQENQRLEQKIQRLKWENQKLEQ

The target of the next assay is T10, P9A-bP.
T10 chain: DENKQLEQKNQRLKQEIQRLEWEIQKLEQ

A further assay has as its target T11, 4H2253-bH.
T11 chain: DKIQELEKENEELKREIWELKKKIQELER

For another assay, the target named is T12, 4H235-bH.
T12 chain: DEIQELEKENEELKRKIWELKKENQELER

Another assay deals with T13, 4H2444-bH.
T13 chain: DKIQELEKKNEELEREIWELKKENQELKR

Another assay addresses T14, 4H2518-bH.
T14 chain: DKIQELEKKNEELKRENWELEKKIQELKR

The next assay addresses T15, 4H2585-bH.
T15 chain: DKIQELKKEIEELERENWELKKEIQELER

The target of another assay is T16, 4H264-bH.
T16 chain: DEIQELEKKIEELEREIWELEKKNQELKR

For a further assay, the target named is T17, 4H2760-bH.
T17 chain: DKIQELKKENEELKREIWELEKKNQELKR

The target in the next assay is T18, 4H2859-bH.
T18 chain: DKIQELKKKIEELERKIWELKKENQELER

The next assay has as its target T19, 4H2931-bH.
T19 chain: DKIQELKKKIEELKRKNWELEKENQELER

In the next assay the target is T20, 4H3041-bH.
T20 chain: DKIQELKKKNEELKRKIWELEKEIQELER

In a further assay the target is T21, 4H3297-bH.
T21 chain: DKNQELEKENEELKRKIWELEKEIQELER

The target of another assay is T22, 4H3364-bH.
T22 chain: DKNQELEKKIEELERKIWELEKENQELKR

In the next assay the target is T23, 4H3381-bH.
T23 chain: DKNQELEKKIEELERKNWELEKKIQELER

The target of another assay is T24, 4H349-bH.
T24 chain: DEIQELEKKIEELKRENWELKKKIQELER

Another assay concerns the target T25, 4H56-bH.
T25 chain: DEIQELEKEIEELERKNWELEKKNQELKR

The target in a further assay is T26, 4H730-bH.
T26 chain: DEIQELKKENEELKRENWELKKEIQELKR

For the next assay, the target named is T27, 4H796-bH.
T27 chain: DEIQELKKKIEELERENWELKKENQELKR

The target in another assay is T28, 4H932-bH.
T28 chain: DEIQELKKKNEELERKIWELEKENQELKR

The target in a further assay is T29, 4H949-bH.
T29 chain: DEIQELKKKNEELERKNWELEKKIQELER

B1: P12A-bP (peptide)
chain: DKNKQLKQKIQRLKQKIQRLKWENQKLEQ
With B1, the interaction score with P12A-bP was -1.39; with P1A-bP, -0.938; with P2A-bP, -1.47; with P3A-bP it was 1.06; with P4A-bP, -1.3; with P5A-bP, -1.95. Moreover, the interaction score with P6A-bP was -1.09; with P7A-bP, -1.24; in the assay with P8A-bP, -1.36; with P9A-bP, -0.693.

B2: 4H2253-bH (peptide)
chain: DKIQELEKENEELKREIWELKKKIQELER
In the case of B2, the interaction score was 0.888 with 4H2253-bH; 0.172 with 4H235-bH; -0.045 with 4H2444-bH; 0.157 in the assay with 4H2518-bH; -1.52 in the assay with 4H2585-bH; 0.653 with 4H264-bH. For the same molecule, the interaction score was 0.899 in the assay with 4H2760-bH; 0.651 with 4H2859-bH; -0.195 with 4H2931-bH; 0.872 with 4H3041-bH; 0.617 with 4H3297-bH; 0.0509 in the assay with 4H3364-bH. Further, the interaction score with 4H3381-bH is 0.131; with 4H349-bH, -0.0717; with 4H56-bH, -2.53; with 4H730-bH, -0.37; with 4H796-bH it was -0.124; in the assay with 4H932-bH, -0.937. For the same molecule, the values for the interaction score with 4H949-bH, with P12A-bP and with P7A-bP were -0.427, -0.712 and -1.72, respectively.
